Data taken from patent US20200308267A1 (Boehringer Ingelheim, published 2020).
Like-named read-outs stand apart in the source and are kept apart here.

Key:
VEGF [1] = assay: cell-based or functional assay
VEGF [2] = assay: cell-based or functional assay; remark: listed apart in the source
[3] = molecular target: T1, recombinant human VEGF165 (human, UniProt P15692-4 27-191, biotinylated (Sulfo-NHS-LC-Biotin) in the competition assays); assay: SPR Biacore T100, VEGF165 chip, Two State Reaction fit
T1 construct: also called hVEGF165; rhVEGF165
Experimental: Samples are injected for 2 min and allowed to dissociate up to 20 min at a flow rate of […]. In between sample injections, the chip surface is regenerated with 100 mM HCl. HBS-EP+(Hepes buffer pH7.4+EDTA) is used as running buffer. Binding curves are fitted using a Two State Reaction model by Biacore T100 Evaluation Software v2.0.1.
^{(a)}Heterogeneous binding curve resulting in no 1:1 fit, curves are fitted using a Two State Reaction model by Biacore T100 Evaluation Software v2.0.1

VEGF [4] = assay: cell-based or functional assay; remark: listed apart in the source
[5] = molecular target: T1, recombinant human VEGF165; assay: Biacore, periplasmic extract, VEGF165 chip, two phase decay fit; set-up: unit not given here
Experimental: Dissociation rates of inhibitory VHHs are analyzed on Biacore (Biacore T100 instrument, GE Healthcare). HBS-EP+ buffer is used as running buffer and experiments are performed at 25° C. […] After immobilization, surfaces are deactivated with 10 min injection of 1 M ethanolamine pH8.5. A reference surface is activated and deactivated with respectively EDC/NHS and ethanolamine. Periplasmic extracts of VHHs are injected at a 10-fold dilution in running buffer for 2 min at 45 μl/min and allowed to dissociate for 10 or 15 min. Between different samples, the surfaces are regenerated with regeneration buffer. Data are double referenced by subtraction of the curves on the reference channel and of a blank running buffer injection. […] is evaluated by fitting a two phase decay model in the Biacore T100 Evaluation software v2.0.1.

[6] = molecular target: T2, recombinant mouse VEGF164 (mouse, UniProt Q00731-2 27-190, biotinylated in the AlphaScreen); assay: binding ELISA, coated rmVEGF164
T2 construct: also called mVEGF164; rmVEGF164
T2 sequence (looked up): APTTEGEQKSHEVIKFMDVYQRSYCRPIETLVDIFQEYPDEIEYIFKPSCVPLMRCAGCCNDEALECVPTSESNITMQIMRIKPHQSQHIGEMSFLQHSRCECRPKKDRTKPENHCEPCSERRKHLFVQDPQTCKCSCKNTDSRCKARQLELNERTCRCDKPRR
Experimental: Cross-reactivity to mouse VEGF164 is determined using a binding ELISA. […] Wells are blocked with a casein solution (1% in PBS). […] A mouse VEGF164 reactive mAb is included as positive control.

VEGF [7] = assay: cell-based or functional assay; remark: listed apart in the source
VEGF [8] = assay: cell-based or functional assay; remark: listed apart in the source

Chain of VEGF (P15692 whole entry): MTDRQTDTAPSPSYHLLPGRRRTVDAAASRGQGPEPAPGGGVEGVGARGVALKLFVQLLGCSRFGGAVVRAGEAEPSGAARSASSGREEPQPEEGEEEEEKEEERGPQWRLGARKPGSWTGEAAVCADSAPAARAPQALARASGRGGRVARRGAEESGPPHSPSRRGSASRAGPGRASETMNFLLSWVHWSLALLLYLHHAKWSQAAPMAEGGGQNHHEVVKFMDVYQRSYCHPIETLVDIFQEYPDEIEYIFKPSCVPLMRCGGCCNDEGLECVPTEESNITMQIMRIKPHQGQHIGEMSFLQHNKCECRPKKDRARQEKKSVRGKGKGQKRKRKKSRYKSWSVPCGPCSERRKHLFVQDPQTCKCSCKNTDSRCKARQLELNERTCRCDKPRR

B1: VEGFBII021 (VHH, not shown: small tags and cut ends)
chain: EVQLVESGGGLVQTGDSLRLSCEVSGRTFSSYSMGWFRQAQGKEREFVVAISKGGYKYDSVSLEGRFTISKDNAKNTVYLQINSLKPEDTAVYYCASSRAYGSSRLRLADTYEYWGQGTQVTVSSGGGGSGGGGSGGGGSGGGGSGGGGSGGGGSGGGGSGGGGSEVQLVESGGGLVQPGGSLRLSCVASGIRFMSMAWYRQAPGKHRELVARISSGGTTAYVDSVKGRFTISRDNSKNTVYLQMNSLKAEDTAVYYCNTFSSRPNPWGAGTQVTVSS
In the case of B1, the “HUVEC proliferation, % inhibition” value (VEGF [1]) is reported as 98%, the “HUVEC proliferation, IC50” value (VEGF [1]) is reported as 0.4 nM and the “HUVEC Erk phosphorylation, % inhibition” value (VEGF [2]) is reported as 103%. For the same binder, the “HUVEC Erk phosphorylation, IC50” value (VEGF [2]) was 0.21 nM.

B2: VEGFBII025 (VHH, not shown: small tags and cut ends)
chain: EVQLVESGGGLVQAGGSLRLSCAASGRTFSNYAMGWFRQAPGKERVLVADISSSGINTYVADAVKGRFTISRDNAKNTVYLQMNSLKPEDTAVYYCAASAWWYSQMARDNYRYWGQGTQVTVSSGGGGSGGGGSGGGGSGGGGSGGGGSGGGGSGGGGSGGGGSEVQLVESGGGLVQTGDSLRLSCEVSGRTFSSYSMGWFRQAQGKEREFVVAISKGGYKYDSVSLEGRFTISKDNAKNTVYLQINSLKPEDTAVYYCASSRAYGSSRLRLADTYEYWGQGTQVTVSS
For B2, the “HUVEC proliferation, % inhibition” value (VEGF [1]) was 104%, the “HUVEC proliferation, IC50” value (VEGF [1]) was 0.41 nM and the “HUVEC Erk phosphorylation, % inhibition” value (VEGF [2]) was 99%. The “HUVEC Erk phosphorylation, IC50” value (VEGF [2]) was 0.23 nM.

B3: VEGFBII23A06 (VHH, not shown: small tags and cut ends)
VHH: EVQLVESGGGLVQPGDSLKLSCAFSGRTFSSYSMGWFRQAQGKEREFVVAISSGGFIYDAVSLEGRFTISRDNTKNTVYLQTPSLKPEDTAVYYCAASRAYGSSRLRLADTYDYWGQGTQVTVSS
notes: also purified from E. coli TG1; also called VEGFBII23A6; 23A6
In the case of B3, the ka1 [3] is reported as 420000 M⁻¹ s⁻¹, the kd1 [3] is reported as 0.057 s⁻¹ and the “HUVEC proliferation, % inhibition” value (VEGF [4]) is reported as 73%. For the same binder, the “HUVEC proliferation, IC50” value (VEGF [4]) was 4.29 nM, the “kd(fast)” value [5] was 0.017 and the “kd(slow)” value [5] was 3.7e-05.

B4: VEGFBII24C04 (VHH, not shown: small tags and cut ends)
VHH: EVQLVESGGGLVQPGDSLKLSCVASGRTSSSYSMGWFRQAQGKEREFVVAISSGGYIYDSVSLQGRFTISRDNTKNTVYLQTPSLKPEDTAVYYCAASRAYGSSRLRLADTYDYWGQGTQVTVSS
notes: also purified from E. coli TG1; also called VEGFBII24C4
B4 was tested, and the ka1 [3] was 320000 M⁻¹ s⁻¹, the kd1 [3] was 0.026 s⁻¹ and the “HUVEC proliferation, % inhibition” value (VEGF [4]) was 79%. For the same binder, the “HUVEC proliferation, IC50” value (VEGF [4]) was 3.8 nM, the binding result [6] was “no binding (tested: 500 nM)” and the “kd(fast)” value [5] was 0.013. The “kd(slow)” value [5] was 3.4e-05.

B5: VEGFBII022 (VHH, not shown: small tags and cut ends)
chain: EVQLVESGGGLVQTGDSLRLSCEVSGRTFSSYSMGWFRQAQGKEREFVVAISKGGYKYDSVSLEGRFTISKDNAKNTVYLQINSLKPEDTAVYYCASSRAYGSSRLRLADTYEYWGQGTQVTVSSGGGGSGGGSEVQLVESGGGLVQPGGSLRLSCVASGIRFMSMAWYRQAPGKHRELVARISSGGTTAYVDSVKGRFTISRDNSKNTVYLQMNSLKAEDTAVYYCNTFSSRPNPWGAGTQVTVSS
B5 was tested, and the “HUVEC proliferation, % inhibition” value (VEGF [1]) was 100%, the “HUVEC proliferation, IC50” value (VEGF [1]) was 0.34 nM and the “HUVEC Erk phosphorylation, % inhibition” value (VEGF [2]) was 94%. For the same binder, the “HUVEC Erk phosphorylation, IC50” value (VEGF [2]) was 0.18 nM.

B6: VEGFBII024 (VHH, not shown: small tags and cut ends)
chain: EVQLVESGGGLVQTGDSLRLSCEVSGRTFSSYSMGWFRQAQGKEREFVVAISKGGYKYDSVSLEGRFTISKDNAKNTVYLQINSLKPEDTAVYYCASSRAYGSSRLRLADTYEYWGQGTQVTVSSGGGGSGGGGSGGGGSGGGGSGGGGSGGGGSGGGGSGGGGSEVQLVESGGGLVQAGGSLRLSCTASGSAFKSYRMGWFRRTPGKEDEFVASISWTYGSTFYADSVKGRFTMSRDKAKNAGYLQMNSLKPEDTALYYCAAGAQSDRYNIRSYDYWGQGTQVTVSS
For B6, the “HUVEC proliferation, % inhibition” value (VEGF [1]) was 96%, the “HUVEC proliferation, IC50” value (VEGF [1]) was 0.38 nM and the “HUVEC Erk phosphorylation, % inhibition” value (VEGF [2]) was 94%. The “HUVEC Erk phosphorylation, IC50” value (VEGF [2]) was 0.23 nM.

B7: VEGFBII037 (VHH)
VHH: DVQLVESGGGLVQPGGSLRLSCAASGRTFSSYSMGWFRQAPGKEREFVVAISKGGYKYDAVSLEGRFTISRDNAKNTVYLQMNSLRPEDTAVYYCASSRAYGSSRLRLADTYEYWGQGTLVTVSS
With B7 the “HUVEC proliferation, % inhibition” value (VEGF [7]) was 78% and the “HUVEC proliferation, IC50” value (VEGF [7]) was 1.54 nM.

B8: VEGFBII23B04 (VHH, not shown: small tags and cut ends)
VHH: EVQLVESGGGLVQTGDSLRLSCEVSGRTFSSYSMGWFRQAQGKEREFVVAISKGGYKYDSVSLEGRFTISKDNAKNTVYLQINSLKPEDTAVYYCASSRAYGSSRLRLADTYEYWGQGTQVTVSS
notes: also purified from E. coli TG1; also called VEGFBII23B4; VEGFBII23B04 (wt)
For B8, the ka1 [3] was 210000 M⁻¹ s⁻¹, the kd1 [3] was 0.0086 s⁻¹ and the “HUVEC proliferation, % inhibition” value (VEGF [4]) was 91%. The “HUVEC proliferation, IC50” value (VEGF [4]) was 0.36 nM, the “kd(fast)” value [5] was 0.0088 and the “kd(slow)” value [5] was 4e-05. The “HUVEC proliferation, % inhibition” value (VEGF [7]) was 92%, the “HUVEC proliferation, IC50” value (VEGF [7]) was 0.68 nM and the “HUVEC Erk phosphorylation, IC50” value (VEGF [8]) was 0.37 nM.

B9: VEGFBII038 (VHH)
VHH: DVQLVESGGGLVQPGGSLRLSCAASGRTFSSYSMGWFRQAPGKEREFVVAISKGGYKYDAVSLEGRFTISRDNAKNTVYLQINSLRPEDTAVYYCASSRAYGSSRLRLADTYEYWGQGTLVTVSS
For B9, the “HUVEC proliferation, % inhibition” value (VEGF [7]) was 92% and the “HUVEC proliferation, IC50” value (VEGF [7]) was 0.6 nM.

B10: VEGFBII023 (VHH, not shown: small tags and cut ends)
chain: EVQLVESGGGLVQTGDSLRLSCEVSGRTFSSYSMGWFRQAQGKEREFVVAISKGGYKYDSVSLEGRFTISKDNAKNTVYLQINSLKPEDTAVYYCASSRAYGSSRLRLADTYEYWGQGTQVTVSSGGGGSGGGGSGGGGSGGGGSGGGGSGGGGSGGGGSGGGGSEVQLVESGGGLVQAGGSLRLSCAASGRTFSNYAMGWFRQAPGKERVLVADISSSGINTYVADAVKGRFTISRDNAKNTVYLQMNSLKPEDTAVYYCAASAWWYSQMARDNYRYWGQGTQVTVSS
For B10, the “HUVEC proliferation, % inhibition” value (VEGF [1]) was 98%, the “HUVEC proliferation, IC50” value (VEGF [1]) was 0.52 nM and the “HUVEC Erk phosphorylation, % inhibition” value (VEGF [2]) was 100%. For the same binder, the “HUVEC Erk phosphorylation, IC50” value (VEGF [2]) was 0.25 nM.
